Data taken from article PMC13344147 (Structure (London, England : 1993), 2025).

Target: the molecule itself
Assay: cryo-EM structure

B1: human CPEB3 residues 1-217 (prion-like domain 1 construct) (domain or fragment, UniProt Q8NE35 1-217, looked up)
chain: MQDDLLMDKSKTQPQPQQQQRQQQQPQPESSVSEAPSTPLSSETPKPEENSAVPALSPAAAPPAPNGPDKMQMESPLLPGLSFHQPPQQPPPPQEPAAPGASLSPSFGSTWSTGTTNAVEDSFFQGITPVNGTMLFQNFPHHVNPVFGGTFSPQIGLAQTQHHQQPPPPAPAPQPAQPAQPPQAQPPQQRRSPASPSQAPYAQRSAAAAYGHQPIMT
  binding result: binds
